Ten molecules from US20170101466A1 (published 2017) can be followed below.

Bounds are passed on as bounds.

For test [1], the target named is T1, soluble mouse BLyS (mouse, UniProt Q9WU72 127-309).
T1 construct: europium-labelled in DELFIA; also called mBLyS; mouse BAFF (BLyS)
Put plainly: Biacore T100, binder captured by anti-human Fc, BLyS injected, 1:1 model. On the procedure:
(§1) A Series S CM5 Chip (GE Healthcare) was amine coupled with an anti-human Fc capturing antibody (GE Healthcare Human Fc Kit) to >10,000 RUs. Sample antibodies were diluted in 1×HBS-EP+ running buffer to 0.15 ug/mL and injected for 45 seconds at 10 uL/min. […] Biacore Evaluation software was used to fit the data to a 1:1 Binding Model.

Test [2] concerns the target T1, soluble mouse BLyS. Put plainly: ELISA, soluble mBLyS.
For test [3], the target named is T2, soluble human BLyS (human, UniProt Q9Y275 134-285).
T2 construct: also called hBLyS; human BAFF (BLyS)
Put plainly: blocking of biotinylated soluble hBLyS binding to immobilized mBR3.

The target in test [4] is T2, soluble human BLyS. Kind of test: Biacore T100, binder captured by anti-human Fc, BLyS injected, 1:1 model. The protocol:
as §1

The target in test [5] is T2, soluble human BLyS. Put plainly: DELFIA competition, Eu-hBLyS binding to coated BR3. The protocol: (§2) After 5× washing with 200 ul/well of DELFIA 1× wash solution (PE, Cat #4010-0010), plates were blocked with 3% BSA purified from trace heavy metal amounts (PE, Cat #CR84-100) for 3 hours with shaking at room temperature. Plates were washed again five times at 200 μl/well with DELFIA wash solution.
(§3) The final 3 wells across the plate served as controls (2 wells contained 2,000 pM mAbs for negative and background controls while the third contained no mAbs for positive control). […] After 18-24 hrs at 4° C., plates were read on PE EnVision plate reader with laser excitation, LANCE/DELFIA top mirror, and emission filter Eu-615 with a delay of 400 μs. Data were fit to four parameter (variable slope) inhibition dose response curve using GraphPad PRISM 5.0 software.

Test [6] concerns the target T2, soluble human BLyS. Put plainly: DELFIA competition, Eu-hBLyS binding to coated TACI. On the procedure:
as §2, §3

Test [7] has as its target T1, soluble mouse BLyS. Put plainly: DELFIA competition, Eu-mBLyS binding to coated TACI. The protocol:
as §2, §3

Test [8] concerns the target T1, soluble mouse BLyS. Put plainly: Biacore, antibody captured on chip, BLyS injected, 1:1 model, 25 C. The protocol:
(§4) Recombinant protein NG (Thermo Scientific, Cat #21186) was diluted to 100 μg/ml in 10 mM sodium acetate pH 4.0 and then immobilized on the surface of a pre-activated Series S CM5 Biacore chip (GE, Cat #BR-1005-34) using amine coupling. […] After the dissociation period, the chip was regenerated back to baseline by injecting 10 mM glycine pH 1.5 for 120 seconds over the four flow cells. […] The entire data set was fit to a 1:1 interaction model to give kₒₙ, koff, and Kd values. The assay was run at 25° C. in 1× biacore running buffer HBS-EP+ (GE, Cat #BR-1006-69).

The target in test [9] is T2, soluble human BLyS. The description is as above. On the procedure: as §4
Test [10] has as its target T1, soluble mouse BLyS. Kind of test: DELFIA competition, Eu-mBLyS binding to coated BR3. On the procedure: as §2, §3
For test [11], the target named is T1, soluble mouse BLyS. Kind of test: DELFIA competition, Eu-mBLyS binding to coated BCMA. On the procedure:
as §2, §3

The target of test [12] is T3, mouse APRIL (mouse, UniProt Q9D777 96-241, limits assumed).
T3 construct: Bought recombinant protein; also called mAPRIL
T3 sequence (looked up): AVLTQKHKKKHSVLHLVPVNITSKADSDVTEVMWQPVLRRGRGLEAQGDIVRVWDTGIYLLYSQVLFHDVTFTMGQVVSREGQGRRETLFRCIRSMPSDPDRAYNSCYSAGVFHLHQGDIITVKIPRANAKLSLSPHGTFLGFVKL
Put plainly: Biacore, antibody captured, APRIL injected. On the procedure: (§5) Recombinant protein NG (Thermo Scientific, Cat #21186) was diluted to 100 μg/ml in 10 mM Sodium Acetate pH 4.0 and then immobilized on the surface of a pre-activated Series S CM4 Biacore chip (GE, Cat #BR-1005-34) using amine coupling. […] Binding response was measured as the difference in total RU increase during 300 second APRIL injection of each individual flow cell and the reference flow cell (e.g., Flow cell 2-1).

The target in test [13] is T4, human APRIL (human, UniProt O75888 105-250, limits assumed).
T4 construct: Bought recombinant protein; also called hAPRIL
T4 sequence (looked up): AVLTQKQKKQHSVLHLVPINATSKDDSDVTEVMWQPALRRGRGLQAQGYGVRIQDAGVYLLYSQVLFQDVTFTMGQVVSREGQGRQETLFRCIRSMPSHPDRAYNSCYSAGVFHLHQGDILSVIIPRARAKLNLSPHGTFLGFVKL
Put plainly: Biacore, antibody captured, APRIL injected. The protocol:
as §5

Test [14] concerns the target T2, soluble human BLyS. Kind of test: DELFIA competition, Eu-hBLyS binding to coated BCMA. The protocol: as §2, §3
For test [15], the target named is T2, soluble human BLyS. Put plainly: ELISA, soluble hBLyS.

B1: human TACI (R&D Systems receptor chimera) (receptor, UniProt O14836 2-166, looked up, not shown: a dimerising Fc or GST)
chain: SGLGRSRRGGRSRVDQEERFPQGLWTGVAMRSCPEEQYWDPLLGTCMSCKTICNHQSQRTCAAFCRSLSCRKEQGKFYDHLLRDCISCASICGQHPKQCAYFCENKLRSPVNLPPELRRQRSGEVENNSDNSGRYQGLEHRGSEASPALPGLKLSADQVALVYST
notes: also called hTACI; TACI rec Human
Take B1: in [1], binding was put at a Kd of 0.105 nM, the koff is 6.5e-05 s⁻¹ and the kon was determined as 621000 M⁻¹ s⁻¹.

B2: 2C5 IgG expressed in HEK293 cells (antibody, V domains shown)
VH: QVQLVQSGAEVKKPGASVKVSCKASGYTFTGYYIHWVRQAPGQGLEWMGWINPSSGGTNYAQKFQGRVTMTRDTSASTAFMSLSSLRSEDTAVYYCARSYYDILTGYSRNPFDNWGQGTPVTVSS
VL: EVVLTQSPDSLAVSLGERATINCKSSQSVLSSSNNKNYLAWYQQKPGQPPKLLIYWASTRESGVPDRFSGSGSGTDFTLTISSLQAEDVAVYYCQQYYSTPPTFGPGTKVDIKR
notes: IgG from HEK293-FreeStyle cells
Take B2: the binding result in [2] is listed as “no binding”. This molecule also yielded an IC50 in test [3] of more than 100 nM.

B3: 6A11 IgG1 F243A/V264A double mutein expressed in Pichia pastoris (antibody, V domains shown)
VH: QIQLVQSGTEVKKPGASVKVSCKASGYTFTDYYMHWVRQAPGQGLEWMGRINPNSGGTNYAQKFQGRVTMTRDTSISTAYMELSRLRSDDTFVYYCAREGYDFLTGYTLGGMDVWGQGTTVTVSS
VL: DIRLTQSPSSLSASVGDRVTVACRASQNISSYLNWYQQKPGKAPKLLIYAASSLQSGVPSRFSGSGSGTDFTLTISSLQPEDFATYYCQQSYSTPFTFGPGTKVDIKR
notes: IgG1 F243A/V264A (EU) double mutein, alpha-2,6-sialylated, from glycoengineered Pichia pastoris; also called 6A11 (D132943)
In test [1], B3 showed a Kd of 0.121 nM, a koff of 0.000177 s⁻¹ and a kon of 1.47e+06 M⁻¹ s⁻¹. In test [4], this molecule showed a Kd of 0.905 nM, a koff of 0.000174 s⁻¹ and a kon of 192000 M⁻¹ s⁻¹.

B4: 1D6 IgG expressed in HEK293 cells (antibody, V domains shown)
VH: QVTLKESGPTLVKPTQTLTLTCTFSGFSLSTDGVGVGWIRQPPGKALEWLALIYGDDDKRYSPSLKSRLTITKDTSKNQVVLTMTNMDPVDTATYYCAHSISNYDILTGHWIAKTYDYWGQGTLVTVSS
VL: QSALTQPPSASGSPGQSVSISCIGSRSDIGYYNYVSWYQQHPGEAPKLIIFDVSKRPSGVPDRFSGSKSGNTASLTVSGLQPEDEADYYCASYGGRNNLLFGGGTQLTVLG
notes: as for B2
Take B4: the binding result in test [2] is listed as “no binding”. Further, in test [3], the IC50 is more than 100 nM.

B5: 6C10 IgG1 F243A/V264A double mutein expressed in Pichia pastoris (antibody, V domains shown)
VH: EVQLVQSGAEVKKPGASVKVSCKASGYTFTSYGISWVRQAPGQGLEWMGWISAYNGNTNYAQKLQGRVTMTTDTSTSTAYMELRSLRSDDTAVYYCARTYYDILTGYYYYYGMDVWGQGTTVTVSS
VL: EIVLTQSPGTLSLSPGERAMLSCRASQSVGNYLAWYQQKPGQAPRLLIYDASNRATGIPARFSGSGSGTDFTLTINSLEPEDFAVYYCQQRSNWPLTFGGGTKVEIKR
notes: IgG1 F243A/V264A (EU) double mutein, alpha-2,6-sialylated, from glycoengineered Pichia pastoris; also called 6C10-DM; 6C10-DM (Pichia)
As for B5, the IC50 was 0.0873 nM in [5]; 0.00074 nM in test [6]; 0.445 nM in [7]; more than 2 nM in test [10]; more than 2 nM in test [11]; 0.017 nM in test [14]. Also, the Kd worked out at 0.234 nM in [8], 0.421 nM in test [9], 0.232 nM in test [1] and 0.068 nM in test [4]. Further, the koff in test [8] amounted to 7.9e-05 s⁻¹; in test [9], 5.5e-05 s⁻¹; in test [1], 0.000224 s⁻¹; in test [4], 2.5e-05 s⁻¹. Besides, the kon in test [8] turned out to be 330000 M⁻¹ s⁻¹; in test [9], 130000 M⁻¹ s⁻¹; in test [1] it was 967000 M⁻¹ s⁻¹; in test [4], 368000 M⁻¹ s⁻¹. Further, the binding result in test [12] and in [13] was “no binding (tested: 50 nM)” each time.

B6: 6F5 IgG expressed in HEK293 cells (antibody, V domains shown)
VH: EVQLVQSGAEVKKPGSSVKVSCKASGGTFSSYAISWVRQAPGQGLEWMGGISAYKGNTNYAQKLQGRVTMTTDTSTSTAYMELRSLRSEDTAVYYCARGRLAEYDILTGYYFNTWAFDIWGQGTMVTVSS
VL: QSALTQPASVSGSPGQSITISCTGTSSDVGGYNYVSWYQQHPGKAPKLMIYDVSKRPSGVSNRFSGSKSGNTASLTISGLQAEDEADYYCSSYTSSSTPVLFGGGTKLTVLG
notes: as for B2
In the case of B6, in test [3], the IC50 is more than 100 nM.

B7: 5G10 IgG1 F243A/V264A double mutein expressed in Pichia pastoris (antibody, V domains shown)
VH: QMQLVQSGAEVKKPGASVKVSCKASGYTFTSYAMHWVRQAPGQRLEWMGWINAGNGNTKYSQKFQGRVTITRDTSASTAYMELSSLRSEDTAVYYCAREMAVAGTYYYYGMDVWGQGTTVTVSS
VL: DIQLTQSPSTLSASVGDRVTITCRASQSISGWLAWYQQKPGRAPKLLIYKASSLESGVPSRFSGSGSGTDFTLTISSLQPEDIATYYCQQFDNLLLMYTFGQGTKLEIRR
notes: IgG1 F243A/V264A (EU) double mutein, alpha-2,6-sialylated, from glycoengineered Pichia pastoris; also called 5G10 (D132947)
In test [1], B7 returned a Kd of 0.732 nM, a koff of 0.000451 s⁻¹ and a kon of 616000 M⁻¹ s⁻¹.

B8: 5G10 IgG expressed in HEK293 cells (antibody, V domains shown)
VH: B7 VH
VL: B7 VL
notes: as for B2
Regarding B8, half-maximal inhibition in [2] (IC50) required 51 nM.

B9: 1B5 IgG expressed in HEK293 cells (antibody, V domains shown)
VH: QVQLQESGPGLVEPSETLSLTCTVSGGSISGRNYYWGWIRQSTGKGLEWIGSIYYSGSTYYNPSLKSRVTISVDTSKNQFSLKLSSVTAADTAVYYCARDLANYDILTGYYRARGAFDIWGQGTMVTVSS
VL: QSALTQPASVSGSPGQSITISCTGTSSDVGGYNYVSWYQQHPGKAPKLMIYDVNKRPSGVPDRFSGSKSANTASLTVSGLQAEDEADYYCSSYTAGGNWVFGGGTKLTVLG
notes: as for B2
Regarding B9, the IC50 was found to be 17 nM in [2], 21 nM in [3] and 15 nM in [15].

B10: 10B1 IgG expressed in HEK293 cells (antibody, V domains shown)
VH: EVQLVESGAEVKKPGASVKVSCKASGYTFTSYGISWVRQAPGQGLEWMGWISAYNGNTNYAQKLQGRVTMTTDTSTSTAYMELRSLRSDDTAVYYCARADYDILTGYPRGPVDYWGQGTLVTVSS
VL: QSALTQPPSASGSPGQSVTISCTGTSSDVGHYNYVSWYQQHPGKAPKLIIFDVSDRPSGVSNRFSGSKSGNTASLTISGLQAEDEANYYCSSYTSRNTLIFGGGTKLTVLG
notes: as for B2
Regarding B10, the binding result in test [2] was “no binding”.
